Where no end group is shown, it is not given here. [ ]: non-standard residue; d: D form. pT = C[C@@H](OP(=O)(O)O)[C@H](N)C(=O)O; pS = N[C@@H](COP(=O)(O)O)C(=O)O
T1: AT8 peptide (amino acids 195-215 of tau) (human, phospho-peptide, phosphorylated sites not stated in the example; immobilized on streptavidin tips)
T1 peptide: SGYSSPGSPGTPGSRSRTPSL

T2: AC04 peptide (human, phosphothreonine at T212 and T217 of tau (peptide positions 4, 9))
T2 construct: Tau-derived peptide with an N-terminal Cys
T2 peptide: CSRTPSLPTPPTREPK

T3: wtTau C2 (human)
T3 peptide: PTREPKKVA

T4: tPeptide 5 (204-222) (human)
T4 peptide: GTPGSRSR[pT]P[pS]LP[pT]PPTRE

T5: AT270 peptide (pT181; Tau172-186) (human)
T5 peptide: PAKTPPAPK[pT]PPSSG

B1: VY006 (antibody, V domains shown)
VH: EVQLVESGGGLVQPGGSLRLSCAASGFTFSSYTMNWVRQAPGKGLEWVSYISSSSSTIYYADSVKGRFTISRDNAKNSLYLQMNSLRDEDTAVYYCASLGRGDCWGQGTLVTVSS
VL: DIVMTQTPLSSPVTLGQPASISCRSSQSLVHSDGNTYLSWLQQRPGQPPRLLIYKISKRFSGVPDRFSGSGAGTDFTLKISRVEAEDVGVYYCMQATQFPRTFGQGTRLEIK
B2: VY005 (antibody, V domains shown)
VH: EVQLVESGGGLVQPGGSLRLSCAASGFTFSSYSMNWVRQAPGKGLEWISYISSSNSTIKYADSVKGRFTISRDNAKNSLYLQMNSLRDEDTAVYYCARRSLGDYWGQGTLVIVSS
VL: DIQLTQSPSFLSASVGDRVTITCRASQGISCSLAWYQQKPGKAPKLLIYAASTLQSGVPSRFSGSGSGTEFTLTISSLQPEDFATYYCQQFNSYPFTFGPGTKVDIK
B3: VY018 (antibody, V domains shown)
VH: QVQLQESGPGLVKPSETLSLTCTVSGGSISNYYWSWIRQPAGKGLEWIGRIYTSGDTYYNPSLQSRVTMSVDTSKNQFSLKLSAVTAADTAVYYCARAGIVGTPGLGMDVWGQGTTVTVSS
VL: SYELTQPPSVSVSPGQTARITCSGEALPKQYAYWYQQKPGQAPVLVIYKDSERPSGIPERFSGSSSGTTVTLTISGVQAEDEADYYCQSADSSGTYRVFGGGTKLTVL
B4: VY013 (antibody, V domains shown)
VH: QVTLKESGPVLVKPTETLTLTCTVSGFSLINARMAVSWIRQPPGKALEWLAHIFSNDEKSYSTSLKSRLTISKDTSKSQVVLIMTNMDPVDTATYYCARIRGYSYNYGMDVWGQGTTVTVSS
VL: DIVMTQSPLSLPVIPGEPASISCRSSQSLLHSNGYIYLDWYLQKPGQSPQLLIYVGSNRASGVPDRFSGSGSGTDFKLKISRVEAEDVGVYYCMQTLQIPRTFGGGTKVEIK
B5: VY011 (antibody, V domains shown)
VH: QVQLQESGPGLVKPSETLSLTCTVSGGSISNYYWTWIRQPAGKGLEWIGRVYTSGSANYNPSLKSRVTMSVDTSKNQFSLTLSSVTAADTAVYYCARDRGLYYWGQGTLVTVSS
VL: DIVMTQTPLSSLVTLGQPASISCRSSQSLVHSDGNTYLSWLQQRPGQPPRLLIYKISKRFFGVPDRFSGSGAGTDFTLKINRVEAEDVGIYYCMQATQFPLTFGGGTKVEIK
notes: also called VY0I1; VY0111 (misprints in the text)
B6: VY012 (antibody, V domains shown)
VH: EVQLLESGGGLVQPGGSLRLSCAASGFTYSSYAMSWVRRAPGKGLEWISIISGSSSITYYADSMKGRFTISRDNSKNTLFLQMNSLRAEDTAVYYCAKGGRYGYFQHWGQGTLVTVSS
VL: SYVLTQPPSVSVAPGQTARITCGGNNIGSKSVHWYQQKPGQAPVLVVYDDSDRPSGIPERFSGSNSGNTATLTISRVEAGDEADYYCQVWDSSSDPVVFGGGTMLTVL
B7: VY007 (antibody, V domains shown)
VH: EVQLVESGGGLVQPGGSLRLSCAASRFTFSNYNMNWVRQAPGKGLEWISYISSSSSTIYYADSVKGRFTISRDNAKNSLSLQMNSLRDEDTAVYYCASLGRGYWGQGTLVTVSS
VL: not shown
B8: VY001 (antibody, V domains shown)
VH: EVQLVESGGGLVQPGGSLRLSCAASGFTFSSYNMNWVRQAPGKGLEWISYISSSSNTIYYADSVKGRFTVSRDNAKNSLYLQMNSLRDEDTAVYYCATLGRGYWGQGTLVIASS
VL: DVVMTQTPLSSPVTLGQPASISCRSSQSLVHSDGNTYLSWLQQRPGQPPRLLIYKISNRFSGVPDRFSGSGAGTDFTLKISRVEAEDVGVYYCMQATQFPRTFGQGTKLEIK
B9: VY016 (antibody, V domains shown)
VH: EVQLVESGGGLVQPGGSLRLSCAASGFTFSSYSMNWVRQAPGKGLEWVSYISRSGSTIYYADSVEGRFTISRDNAYNSLYLQMISLRDDDTAVYYCARGNWAYWGQGILVTVSS
VL: QSVLTQPPSVSGAPGQRVTISCTGSSSNIGAGYDVHWYQQLPGTAPKLLIYGNSNRPSGVPDRFSGSKSGTSASLAITGLQAEDETDFYCQSYDSSLSGSVFGGGTKLTVL
B10: VY004 (antibody, V domains shown)
VH: EVQLVESGGGLVQAGGSLRLSCAASGFTFSDYSMNWVRQAPGKGLEWVSYIRSSSSIIYYADSVKGRFTISRDNAKNSLHLQMNSLRDEDTAVYYCARRGHFDYWGQGTLVTVSS
VL: EIVLTQSPATLSLSPGERATLSCRASQSVSDYLAWYQQKPGQAPRLFIYDVSKRATGIPARFSGSGSGTDFTLTISSLEPEDFAVYYCQQRSNWPLTFGGGTKVEIK
B11: VY017 (antibody, V domains shown)
VH: EVQLVESGGGLVQPGGSLRLSCAASGFTFSSYSMNWVRQAPGKGLEWVSYIRSSSSTIYYADSVKGRFTISRDNAKKSLYLQMNSLRDEDTAVYYCARRSIADYWGQGTLVTVSS
VL: EIVLTQSPATLSSSPGERATLSCRASQSVTSYLNWYQQKPGQAPRLLIYDASNRATGIPARFSGSGSGTDFTLTISSLEPEDFALYYCQQRSNWPYTFGQGTKLEIK
B12: VY009 (antibody, V domains shown)
VH: QITLKESGPTLVKPTQTLTLTCTLSGFSLSTSEVGVGWIRQPPGKALEWLAIIYWNDHKRYSPSLKNRLTFTKDTSKNQVVLTMTNMDPVDTATYYCARRVTGEGFDPWGQGTLVTVSS
VL: SYELTQPPSVSVSPGQTARITCSGDALPKQYAYWYQQKPGQAPVLVIFKDTERPSGIPERFSGSSSGTTVTLTISGVQAEDEADYYCQSADSSGSYVFGTGTKVTVL
B13: VY019 (antibody, V domains shown)
VH: QVQLQESGPGLVKPSETLSLTCTVSGGSISSYYWTWIRQPAGKGLEWIGRIDTSGSTNYNPSLKSRVTMSIDTSKKQFSLKLSSVTAADTAVYYCARGGDGYRYWGQGTLVTVSS
VL: SYELTQPPSVSVSPGQTARITCSGDALPKQYACWYQQKPGQAPVLVIYKDSERPSGIPERFSGSSSGTTVTLTITGVQAEDEADYYCQSTDSSGSWVFGGGTKLTVL

How the values were obtained:
[1] = target: T6, Tau191-214 phospho-peptide (pS199) (human, phosphoserine at S199 of tau (peptide position 9); SCBio-4PEG label); test: one point ELISA
T6 construct: also called pS199 peptide
Text: (§1) One-point ELISA was used to determine differential binding based on the individual phosphorylation patterns of each peptide. OD values (450 nm) were collected (as shown in Table 13), where a stronger positive signal is shown as a higher OD value, which is indicative of increased binding.

[2] = target: T7, pS199-old (SCBio-4PEG-Peptide, Tau191-214) (human, phosphoserine at S199 of tau by the row label; SCBio-4PEG label); test: one point ELISA
T7 construct: The suffix -old is not explained
Text: as §1

iPHF [3] = target: T8, iPHF (UniProt P10636-8 2-441, limits assumed); test: SPR (Biacore 8K)
T8 construct: also called iPHF tau

[4] = target: T9, enriched paired helical filament tau protein (ePHF; sarkosyl insoluble tau) (human, UniProt P10636 2-758); test: cell-based or functional assay
[5] = target: T9, enriched paired helical filament tau …; test: direct ELISA, ePHF coated
Description: (§2) A set of recombinant human IgG1 antibodies were prepared with clone-specific variable domain pairs selected from those presented in Table 1 and human IgG1 constant domains. These candidate antibodies were analyzed for binding to ePHF and specificity for ePHF over wild type tau by direct ELISA.
(§3) For direct ePHF and wildtype tau ELISA, plates were first coated with ePHF or wild type tau. Antigen solutions were prepared in PBS and 50 μL were pipetted into each well. Plates were covered and incubated for one hour at 37° C. or overnight at 4° C. Plates were then washed and blocked by addition of 150 μl of blocking buffer to each well and incubated one hour at room temperature. Plates were then washed before addition of serially diluted candidate antibody samples prepared in blocking buffer. Detection of candidate antibody binding was carried out by washing plates and adding a solution of enzyme-labeled secondary antibody in blocking buffer to each well. Secondary antibody binding was detected by addition of substrate and spectrophotometric analysis of resulting reaction product.

[6] = target: T1, AT8 peptide (amino acids 195-215 of tau); test: BLI (Octet), phospho-peptide on streptavidin tips
Description: Briefly, phospho-peptides were immobilized on streptavidin biosensor tips and the binding ability of each antibody was assessed using an eight-point concentration gradient.

iPHF [7] = target: T8, iPHF; test: BLI (Octet), antibody on biosensor tip, iPHF in solution
Description: Anti-human tau antibodies were assessed for affinity for iPHF by Octet (ForteBio, Menlo Park, CA) analysis. A set of recombinant human IgG1 antibodies were prepared with clone-specific variable domain pairs selected from those presented in Table 1 and human IgG1 constant domains. Candidate antibodies were immobilized on biosensor tips (ForteBio) in kinetic buffer (ForteBio). Biosensor tips were then washed before introduction of a solution of iPHF in kinetic buffer for analysis of association and dissociation with candidate antibodies.

[8] = target: T9, enriched paired helical filament tau …; test: follow up selectivity analysis, ePHF over wild-type tau; method not stated
iPHF [9] = target: T8, iPHF; test: follow up selectivity analysis, iPHF over wild-type tau; method not stated
AC04 peptide = target: T2, AC04 peptide; test: one point ELISA
Text: as §1

wtTau C2 = target: T3, wtTau C2; test: one point ELISA
Text: as §1

tPeptide 5 (204-222) = target: T4, tPeptide 5 (204-222); test: one point ELISA
Text: as §1

wild type tau = target: T10, wild type tau (human, UniProt P10636 2-758); test: direct ELISA, wild type tau coated
T10 construct: also called WT
Description: as §2, §3

[10] = target: T5, AT270 peptide (pT181; Tau172-186); test: one point ELISA
[11] = target: Tau191-214 phospho-peptide (pS202) (human, phosphoserine at S202 of tau (peptide position 12); SCBio-4PEG label); test: one point ELISA
Text: as §1

[12] = target: Tau191-214 phospho-peptide (pT205) (human, phosphothreonine at T205 of tau (peptide position 15); SCBio-4PEG label); test: one point ELISA
Text: as §1

T8 sequence (P10636 other isoform, or with tags, fused parts or gaps limits assumed): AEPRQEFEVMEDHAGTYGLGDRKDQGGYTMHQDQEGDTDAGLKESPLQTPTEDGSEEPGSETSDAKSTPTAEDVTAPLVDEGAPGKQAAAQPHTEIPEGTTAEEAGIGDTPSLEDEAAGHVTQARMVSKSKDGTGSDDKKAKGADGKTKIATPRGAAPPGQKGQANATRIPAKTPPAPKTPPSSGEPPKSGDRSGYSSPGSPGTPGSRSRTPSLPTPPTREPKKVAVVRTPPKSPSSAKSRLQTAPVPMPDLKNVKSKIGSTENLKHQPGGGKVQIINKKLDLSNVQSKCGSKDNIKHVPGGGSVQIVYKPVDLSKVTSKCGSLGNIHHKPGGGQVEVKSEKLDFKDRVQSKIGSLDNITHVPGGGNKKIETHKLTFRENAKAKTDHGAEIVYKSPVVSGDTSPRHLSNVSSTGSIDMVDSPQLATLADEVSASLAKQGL
T9 sequence (P10636 other isoform, or with tags, fused parts or gaps limits assumed): as above
T10 sequence (P10636 other isoform, or with tags, fused parts or gaps limits assumed): as above
T7 sequence (peptide, as listed by the source): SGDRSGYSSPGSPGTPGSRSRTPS

| Binder | Kd (iPHF [3]) | Average IC50 (nM) for inhibiting tau aggregation after immunodepletion of ePHF (tau RD Biosensor cells) [4] | EC50 [5] | Kd [6] | Kd (iPHF [7]) | selectivity ePHF:WT [8] | selectivity iPHF:WT (iPHF [9]) | also measured |
| --- | --- | --- | --- | --- | --- | --- | --- | --- |
| B1 | 356 pM | 8.3 nM | 110 pM | 3.82 pM | 1500 pM | > 40 fold | > 145 fold | OD (450 nm) [1]: 0.054 OD450; OD (450 nm) [2]: 0.063 OD450 |
| B2 | – | – | 70 pM | – | 1000 pM | – | – | OD (450 nm) (AC04 peptide): 2.83 OD450; OD (450 nm) (wtTau C2): 0.153 OD450; OD (450 nm) (tPeptide 5 (204-222)): 0.288 OD450 |
| B3 | – | – | – | – | 3000 pM | – | > 73 fold | – |
| B4 | – | – | 60 pM | – | 2900 pM | – | – | EC50 (wild type tau): 980 pM |
| B5 | 238 pM | 18.1 nM | 30 pM | 8.9 pM | 2000 pM | > 137 fold | > 108 fold | binding result [10]: no binding; OD (450 nm) [11]: 0.06 OD450; OD (450 nm) [12]: 0.06 OD450 |
| B6 | – | – | 40 pM | – | 5100 pM | – | – | EC50 (wild type tau): 10 pM |
| B7 | 596 pM | 36.3 nM | 180 pM | 18.2 pM | 600 pM | > 23 fold | > 109 fold | OD (450 nm) [1]: 0.057 OD450; OD (450 nm) [2]: 0.057 OD450 |
| B8 | 293 pM | 12.5 nM | 20 pM | 4.35 pM | 7700 pM | > 181 fold | > 30 fold | OD (450 nm) [1]: 0.059 OD450; OD (450 nm) [2]: 0.059 OD450 |
| B9 | – | – | – | – | – | – | – | binding result [5]: no binding; binding result (wild type tau): no binding |
| B10 | 11600 pM | 9.39 nM | 70 pM | – | 3700 pM | > 59 fold | > 382 fold | OD (450 nm) (AC04 peptide): 2.85 OD450; OD (450 nm) (wtTau C2): 0.169 OD450; OD (450 nm) (tPeptide 5 (204-222)): 0.382 OD450 |
| B11 | – | – | – | – | 3700 pM | – | – | – |
| B12 | – | – | 1740 pM | – | 1100 pM | – | – | – |
| B13 | – | – | – | – | – | – | – | binding result [5]: no binding; binding result (wild type tau): no binding |

From patent US20250243263A1 (VOYAGER THERAPEUTICS, published 2025)
